Test results from patent US20110318808.

Legend:
[1] = molecular target: T1, fluorophore/quencher substrate peptide DABCYL-YGENVTFQGSK-EDANS
T1 chain: YGENVTFQGSK

[2] = molecular target: T2, fusion substrate protein with the ENVTFQG consensus recognition sequence
T2 chain: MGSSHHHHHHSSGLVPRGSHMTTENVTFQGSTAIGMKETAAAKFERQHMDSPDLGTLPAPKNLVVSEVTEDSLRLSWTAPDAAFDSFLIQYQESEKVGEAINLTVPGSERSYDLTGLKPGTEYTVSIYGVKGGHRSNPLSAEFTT

[3] = molecular target: T3, fusion substrate protein with the PVA NIa protease consensus sequence with a P2' proline (ENVTFQGP)
T3 chain: ENVTFQGP

[4] = molecular target: T4, fusion substrate protein with the TEV NIa protease recognition sequence (ENLYGQGS)
T4 chain: ENLYGQGS

[5] = molecular target: T5, fusion substrate protein with the TVMV NIa protease recognition sequence (ETVRFQGS)
T5 chain: ETVRFQGS

[6] = molecular target: T6, synthetic peptide SEAVYTQGSS (NIa/NIb junction recognition sequence EAVYTQG)
T6 chain: SEAVYTQGSS

[7] = molecular target: T7, synthetic peptide SEMVTNQSSS (recognition sequence EMVTNQS)
T7 chain: SEMVTNQSSS

[8] = molecular target: T8, synthetic peptide SENVTFQGSS (consensus recognition sequence ENVTFQG)
T8 chain: SENVTFQGSS

[9] = molecular target: T9, synthetic peptide SENVTKQLSS (recognition sequence ENVTKQL)
T9 chain: SENVTKQLSS

[10] = molecular target: T10, synthetic peptide SEVVLFQASS (P3/6K1 junction recognition sequence EVVLFQA)
T10 chain: SEVVLFQASS

B1: potato virus A (PVA) NIa protease, wild type (protein)
chain: STSMFRGVRDYNPISSVICQLENESEGRTTQLFGLGFGPFIITNQHLFVRNNGSLTVRSQMGVFKVNSTVTLQMRPVEGRDVLIIKMPKDFPPFPQRLKFRQPTHSEKVCLILTNFQQKSSSSMVSETSHIIPKENTYFWKHWISTKEGHCGSPIVSTTDGAILGIHSLSNMTNTSNYFACFPKGFTETYLATESAHEWVKGWKFNASNVCWGSFHLQDSKPTKEFKTVKLV
In the case of B1, the Km (uM), DTT + [1] is reported as 178 µM, the Relative Kcat/Km, DTT + [1] is reported as 100 and the Vmax (RFU/min), DTT + [1] is reported as 78500 RFU/min. The “proteolytic cleavage of the substrate monitored by SDS-PAGE” value [2] was “cleaved the substrate to completion”, the “Cleaved by NIa (fusion substrate protein)” value [3] was “No” and the “Cleaved by NIa (fusion substrate protein)” value [4] was “No”. The “Cleaved by NIa (fusion substrate protein)” value [5] was “Yes”, the “rate of cleavage of fusion substrate” value [5] was “able to cleave the fusion substrate with the TVMV NIa protease recognition sequence, although at a much lower rate than the PVA NIa protease consensus sequence” and the “Cleaved by NIa (synthetic peptide, RP-HPLC and LC-MS)” value [6] was “Yes”. The “Cleaved by NIa (synthetic peptide, RP-HPLC and LC-MS)” value [7] was “No”, the “Cleaved by NIa (synthetic peptide, RP-HPLC and LC-MS)” value [8] was “Yes” and the “Cleaved by NIa (synthetic peptide, RP-HPLC and LC-MS)” value [9] was “No”. For the same protein, the “Cleaved by NIa (synthetic peptide, RP-HPLC and LC-MS)” value [10] was “Yes”.
